Source: the nanobody polyreactivity screen of Harvey et al. (2022)

Assay: yeast display, Sf9 membrane polyspecificity reagent, FACS + sequencing; frameworks hold sequencing errors
Outline: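 Nanobodies came from a synthetic yeast display library in Saccharomyces cerevisiae BJ5465, induced with galactose for 36–48 hours and stained for 1 hour at 4 °C with 10% biotinylated, detergent-solubilized Sf9 membrane reagent. Cells were enriched on streptavidin microbeads and then FACS-sorted, with low and high (top ~1%) gates set on anti-HA fluorescence for expression and streptavidin fluorescence for reagent binding. Each polyreactivity label reflects the gate a clone came from. Genes were amplified by colony PCR, sequenced by MiSeq 2 × 250 and filtered by CDR length.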

| Sequence | polyreactivity (PSR sort gate) |
| --- | --- |
| QVQLVESGGGLVQAGGSLRLSCAASGSTFRRNAMGWYRQAPGKERELVAAITSTDSTYYADSVKGRFTISRDNAKNTVYLQMNSLKPEDTAVYYCAKGYCWGGQMGYWGQGTQVTVSS | low polyreactivity |
| QVQLVESGGGLVQAGGSLRLSCAASGSTFRRNAMGWYRQAPGKERELVAAITVSGGSTYYADSVKGRFTISRDNAKNTVYLQMNSLKPEDTAVYYCAAEPSQYSWYTTYYYWGQGTQVTVSS | high polyreactivity |
| QVQLVESGGGLVQAGGSLRLSCAASGSTFRRNAMGWYRQAPGKERELVATISTRGGSTYYADSVKGRLTLSRDNAKNTVYLQMNSLKPEDTAVYYCAADRRSGYSRSKYGRGDYWGQGTQVTVSS | high polyreactivity |
| QVQLVESGGGLVQAGGSLRLSCAASGSTFRRYAMGSYRQAPGKERELVAAISVSGGRTSYADSVKGRFTISRDNAKNTVYLQMNSLKPEDTAVYYCNADYYKRMDYWGQGTKVTVSS | high polyreactivity |
| QVQLVESGGGLVQAGGSLRLSCAASGSTFRRYAMGWYRQAPGKEREISTSDGSTYYADSVKGRFTISRDNAKNTVYLQMNSLKPEDTAVYYCAADGYRQLIEDITDDYWGQGTQVTVSS | low polyreactivity |
| QVQLVESGGGLVQAGGSLRLSCAASGSTFRRYAMGWYRQAPGKERELVAAITSTDVNTYYADSVKGRFTISRDNAKNTVYFQMNSLKPEDTAVYYCAAVYLGYYGVSDMEYWGQGTQVTVSS | high polyreactivity |
| QVQLVESGGGLVQAGGSLRLSCAASGSTFRRYPMGGYRQAPGTERELVAGISSGGTTYYADSVKGRFTISRDNAKNSVYLQMNSLKPEDTAVYYCAKVLYLRSAQAYYYWGQGTQVTVSS | high polyreactivity |
| QVQLVESGGGLVQAGGSLRLSCAASGSTFRSNAMGWYRQAPGKERELVAAISRRGGSTYYADSVKGRFTISRDNAKNTVDLQMNSLKPEDTAVYYCAKGYIGFPISSFLYDYWGQGTQVTVSS | high polyreactivity |
| QVQLVESGGGLVQAGGSLRLSCAASGSTFRSYTMGWYRQAPGKERELVADINGTGGSTYYADSVKGRFTISRDNAKNTVYLQMNSLKPEDTAVYYCAADGYFRTVTSGWALRMGYWGQGTQVTVSS | high polyreactivity |
| QVQLVESGGGLVQAGGSLRLSCAASGSTFRTYAMGWYRQAPGKEREFVAAIRYNGGSTYYADSVKGRFTISLDNAKNTVYLQMNSLKPEDTAVYYCAAATYYYRVSWLWYYLDDYWGQGTQVTVSS | high polyreactivity |
| QVQLVESGGGLVQAGGSLRLSCAASGSTFRVNAMGWYRQAPGKEREFVATIRGGGVRTYYADSVKGRFTISRDNAKNTVYLQMNSLKPEDTAVYYCAVAGGTPGAYRRFNYWGQGTQVTVSS | high polyreactivity |
| QVQLVESGGGLVQAGGSLRLSCAASGSTFRVNAMGWYRQAPGKEREFVATIRGGGVRTYYADSVKGRFTISRDNAKNTVYLQMNSLKPEDTAVYYCNRKFYWRRDYWGQGTQVTVSS | high polyreactivity |
| QVQLVESGGGLVQAGGSLRLSCAASGSTFRVNVMGWYRQAPGKERELVAAITTSGGSTYYADSVKGRFTISRDNAKNTVYLQMNSLKPEDTAVYYCAAEGGFSPQPYNLYYATPREDYWGQGTQVTVSS | low polyreactivity |
| QVQLVESGGGLVQAGGSLRLSCAASGSTFRVYAMGWYRPAPGKVRELVAAISGSGTSTYYADSVKGRFTISRDNAKNTVYLQMNSLKPEDTAVYYCATGKNYWRGYEYWGQGTQVTVSS | high polyreactivity |
| QVQLVESGGGLVQAGGSLRLSCAASGSTFRVYAMGWYRQAPGKERELVAAITKSGGSTYYADSVKGRFTISRDNAKNTVYLQMNSLKPEDTEVYYCAADKSWTRYGFYWGQGTQLTVSS | high polyreactivity |
| QVQLVESGGGLVQAGGSLRLSCAASGSTFRVYAMGWYRQAPGNERELVAAISLSGGRTYYADSVKGRFTISRDNAKNTVYLQMNSLKPEDTAVYYCARRYRDYGRYGYWGQGTQVTVSS | high polyreactivity |
| QVQLVESGGGLVQAGGSLRLSCAASGSTFRWNAMGWYRQAPGKERELVAAITRSGGSTYYADSVKGRFTISRDNAKNTVYLQMNSLKPEDTAVYYCAAGYYTARRIRSDYWGQGTQVTVSS | high polyreactivity |
| QVQLVESGGGLVQAGGSLRLSCAASGSTFRWNTMGWYIQAPGKERELVAAISYSGGITYYADSVKGRFTISRDNAKNTVYLQMNSLKPEDTAVYYCYATRVRGWYVTRYYYWGQGSQVTVSS | high polyreactivity |
| QVQLVESGGGLVQAGGSLRLSCAASGSTFRWYAMGWYRQAPGKERDLVAAISARGTSTYYADSVKGRFTISRDNAKNTVYLQMNSLKPEDTAVSYCAAPQQQSWTYDGRYGYWGQGTQVTVSS | high polyreactivity |
| QVQLVESGGGLVQAGGSLRLSCAASGSTFRWYAMGWYRQAPGKERELVAAIRRIGSRTYADSVKGRFTISRDNAKNTVYLQMNSLKPEDTAVYYCATRYKYTGYDYWGQGTQVTVSS | high polyreactivity |
| QVQLVESGGGLVQAGGSLRLSCAASGSTFRWYAMGWYRQAPGKERELVAAIRYTGGSTYYADSVKGRFTISRDNAKNTVYLQMNSLKPEDTAVYYCNARTFRRYVSYSRTYVGYDYWGQGTQVTVSS | high polyreactivity |
| QVQLVESGGGLVQAGGSLRLSCAASGSTFRWYAMGWYRQAPGKERELVAAITAGGRTYYADSVKGRFTISRDNAKNTVYLQMTSLKPEDTAVYYCNALGKPTWYATTYDYWGQGTQVTVSS | high polyreactivity |
| QVQLVESGGGLVQAGGSLRLSCAASGSTFRYIAMGWYRQAPGKERELVAAISRGGSTNYADSVKGRFTISRDNAKNSVYLQMNSLKPEDTAVYYCAASGTRRGTAVWRVKPGDYWGQGTQVTVSS | high polyreactivity |
| QVQLVESGGGLVQAGGSLRLSCAASGSTFRYKTMGWYRQAPGKERELVAAISSRGTNTYYADSVKGRFTISRDNAKNTVYLQMNSLKPDDPAVYYCDTGYYVRMDWGQGTQVTVSS | high polyreactivity |
| QVQLVESGGGLVQAGGSLRLSCAASGSTFRYNAMGWYRQAPGKERELVAVISWGGGRTYYADSVKGRFTISRDNAKNTVYLQMNSLKPEDTAVYYCNVYFGRIVARDYGYWGQGTQVTVSS | high polyreactivity |
| QVQLVESGGGLVQAGGSLRLSCAASGSTFRYNAMGWYRQAPGKEREVVAAISRIGGTTYADSVKGRFTISRDNAKNTVYFQMNSLKPEDTAVYYCARANWGYYGPEYGYWGQGTQVTVSS | high polyreactivity |
| QVQLVESGGGLVQAGGSLRLSCAASGSTFRYNAMGWYRQARGKERELVGGITSSGGTYAHSVKGRFTISRDNAKNTVYLQMNSLKPEDTAVYYCNALGVQDEFDYWGQGTQVTVSS | low polyreactivity |
| QVQLVESGGGLVQAGGSLRLSCAASGSTFRYNARGWYRQAPGKERELVADIRRSGGSTYYADSVKGRFTISRDNAKNTVYLQMNSLKPEDTAVYYCNAAVSRLYYHSYSYRSYYYWGQGTQVTVSS | high polyreactivity |
| QVQLVESGGGLVQAGGSLRLSCAASGSTFRYNDMGWYRQAPGKERELVADITSGGGTYYADSVKGRFTISRDNAKNTVYLQMNSLKPEDTAVYYCNADGFYDYPGWYGLVYWYDYWGQGTQVTVSS | high polyreactivity |
| QVQLVESGGGLVQAGGSLRLSCAASGSTFRYNLMGWYRQAPGKERELVAAISAVGSTYYADSVKGRFTISRDNAKNTVYLQMNSLKAEDTAVYYCAASYDWRAYRRDFYYWLTGDYWGQGTQVTVSS | low polyreactivity |
